Experimental data reported in the nanobody polyreactivity screen of Harvey et al. (2022).

experiment: yeast display, Sf9 membrane polyspecificity reagent, FACS + sequencing; frameworks hold sequencing errors
In short: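 Synthetic nanobody libraries on Saccharomyces cerevisiae BJ5465 were galactose-induced for 36–48 hours, stained 1 hour at 4 °C with 10% biotinylated, detergent-solubilized Sf9 membrane reagent and enriched on streptavidin microbeads. FACS then separated cells into low and high (top ~1%) gates by anti-HA (expression) and streptavidin (reagent binding) fluorescence. Genes were colony-PCR amplified, MiSeq 2 × 250 sequenced and CDR-length filtered. A clone's polyreactivity label is that of its gate of origin.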

Row | Sequence | polyreactivity (PSR sort gate)
1 | QVQLVESGGGLVQAGGSLRLSCAASGSIFQWYAMGWYRQAPGKERELVAAINWSSGSTYYADSVKGRFTISRDIAKNTVYLQMNSLKPEETAVYYCAARIGYGTSYLRRIYYWGQGTQVTVSS | high polyreactivity
2 | QVQLVESGGGLVQAGGSLRLTCAASGLTFFYYAMGWYRQAPGKERELVAGISRSGGSTYYADSVKGRFTISRDYAKNTVYLQMNSLKPEDTAVYYCAKRTLVASYIYREGEYWGQGTQVTVSS | high polyreactivity
3 | QVHLVESGGGLVQAGGSLRLSCAASGSIFSDYAMGWYRQAPGKERELVAAITWSGGSTYYADSVKGRFTISRDNAKNTVYLQMNSLKPEDTAVYYCAARFGKVRDFRYAYLLEYDYWGQGTQVTVSS | low polyreactivity
4 | QVQLVESGGGLVQAGGSLRLSCVASGRIIPCNAMGWYRQAPGKERELVAAISYGGGSTYYADSVKGRFTISRDNAKNTVYLQMNSLKPADTAVYYCAAASSGEYGYWGQGTQVTVSS | low polyreactivity
5 | QVQLEESGGGLVQAGGSLRLSCAASGLTFPSNAMGWYRQATGKERALVASISKRGGRTYYADSVKGRFTISRDNAKHTVYLQMNSLKPEDTAVYDCATPYAYPGSVQYAGYNYWGQGTQVTVSS | high polyreactivity
6 | QVQLVESGGGLVQAGGSLRLSCAASVRIYGSNVMGWYRQAPGKERELVASISSGGTTYYADSVKGRFTISRDNAKNTVYLQMNSLKPEDTAVYYCAKQWTRIYQYRWYPGTRTGYDYWGQGTQVTVSS | high polyreactivity
7 | QVQLVESGGGLVQAGGSLRLSCAASGSIFTGYAMGWYRQAPGKDRELVAAISWRGGGTYYADSVQGRFTISRDNAKNTVYLQMNSQKPEDTAVYDCAAVTKFGQYAPGSKGYGYWGQATQVTVSS | low polyreactivity
8 | QVQLVESGGGIVQAGGSLRLSCAASGFTFEYYAMGWYRQAPGKERELVADITSGGTYYADSVKGRFTISRDNAKNTVYLQMNSLKPEDTAVYYCAADFGQPYTYYAKENYWGQGTQVTVSS | low polyreactivity
9 | QVQIVESGGGLVQAGGSLPLSCDASGITFERYDMGWYRQAPGKERELGAAISTTGGRTYYADSVKGRFTISRDNAKNSVYLQMNSLKPEDTAVYYCAARYTTRRRYDYWGQGTQVTVSS | high polyreactivity
10 | QVQLVESGGGLVQAGGSLRLSCAASGFILFFNAMGWYRAPWKERELVAGITQSGGSTYYADSVKGRFTISRDNAKNPVYLQMNSLKPEDTAVYYCAAELYDRWSRMDYWGQGTQVTVSS | low polyreactivity
11 | QVQLVESGGGLVQAGGSLRLICAASGLTFHRYAMGWYRQAPGKERELVAAINYSGGRTYYADSVKGRFTISRDNAKNTVYLQMNSLKPEDTAVYYCAAPRASGYYWGQGTQVTVSS | high polyreactivity
12 | QLQLVESGGGLVQAGGSLRLSCAASGRIFYQTAMGWYRQAPGKERELVADIASGGSTYYADSVKGRFSISRDNAKNTVHLQMNSLKREDTAVDYCATAVLYGDGWYYYWGQGTQVTVSS | low polyreactivity
13 | QVQLVESGGGLVQAGGSLRLSCAASGRIFIYNAMGWYRQAPGKEMELVAAISWSGGSTYYADSVKGRFTISRDNAKNTVYLQMNSLKPEDTAVYYCNARYYGPSWNSYDYWGQGTQVTVSS | high polyreactivity
14 | QVQLVESGGGLVQAGGSLRLSCAASGIIFSVNAMGWYRQAPGKERELVAAISGSGGRTYYADSVKGRFTISRDNAKNTVYLQMNSLKPEDTAVYYCAARRTGKSYYGSRSGFDYWGQGTQVTVSS | high polyreactivity
15 | QVQLVESGGGLVQAGGSLRLSCAASGFTFQRYAMGWYRQAPGKERELVADISRSGGSTYYADSVKGRFTISRDNAKNTVYLQMNSLKPEDTAVYYCAAGYPGYDSYYKFYYWGQGTQVTVSS | high polyreactivity
16 | QVQLVESGGGLVQAGGSLRLSCAASGSIFGTYPMGWYRQAPGKERELVAAITRRGGSTFYADSVKGRFTISRDNAKNTVYLQMNSLKPEDTAVYYCAAPPYYWGQGTQVTVSS | high polyreactivity
17 | QVQLVESGGGLVQAGGSLRLSCAASGSIFRTNAMGWYRQAPGKERELVAAISQRGGSTYYADSVKGRFTISRDNAKNTVYLQMNSLKPEDTAVYYCAAPYTQKRGYDYWGQGTLVTVSS | high polyreactivity
18 | QVQLVESGGGLVQAGGSVRLSCAASGFSFRLYVLGWYRQAPGTERELVAAISSLGGSTYYADSVKGRFTISRDNAKYTVDLQMNSLKPEDTAVYYCAADRPRGRETVDYWGHGTQVTVSS | high polyreactivity
19 | QVQLVESGGGLVQAGGSLRLSCAASGSIFGNAMGWYRQAPGKEREFVAAISSSGSSTYYADSVKGRFTISRDNAKNTVYLQMNSLKPEDTAVYYCAKRRRSAAPKYDYWGQGTQVTVSS | high polyreactivity
20 | QVQLVESGGGLVQAGGSLRLSCAASGRIFKGNAMGWYRQAPGKEREFVAAISQRGGSTYYADSVKGRFTISRDNAKNTVYLQMNSLKPEDTAVYYCAAVRKSVGVKYDYWGQGTQVTVSS | high polyreactivity
21 | QVQLVESGGGLVQAGGSLRLSCAASGFTFYYYAMGWSRQAPGKERELVAAISTRDGNTYYADSVKGRFTISRDNAKNTVYLQRNSLKPEDTAVYYCAADYFRYYPYDYWGQGTQVTVSS | low polyreactivity
22 | QVQLVESGGGLVQAGGSLRLSCAASGSTFQYNVMGWYRQAPGKERELVAAITNRDGSTYYADSVKGRFTISRDNAKNTVYLQMNSLKPEDTAVYYCAAPVWLWADRYDSWGQGTQVTVSS | low polyreactivity

Row | Sequence | polyreactivity (PSR sort gate)
23 | QVHLQGSGGGLVQAGGSLRLSCAASGYIFQNDPMGWNLQAPGKERELVAGIDNGTSTNYADSVNGRFTISRDNAKNTVYLQMNSLKPEDTAVYYCSAAGQADDTLGYWGQGTEVTVSS | low polyreactivity
24 | QVQLVESGGGLVQAGGSLRLSCAASGNTFRYNAMGWYRQAPWKERELVAAISRRGGSTYYADSVKGRFTISRDNAKNTVYLQMNSLKPEDTAVYYCNAGRTAENEYWGQGTQVTVSS | high polyreactivity
25 | QDQLVESGGGLVQAGGSLRLSCAASGRIFKHNAMGWYRQAPGKERELVATISIAGRTNYADSVKGRFTISRDNAKNTVYLQMNSLKPEDTAVYYCAASTFFIHTYDYWGQGTQVTVSS | low polyreactivity
26 | QVQLVESGGGLVQAGGSLRLSCAASGFIFTSYAMGWYRQAPGKERELVAAITDGGSTNYADSVKGRFTISRDNAKNTVYLQMNSLKPEDTAVYYCAADGFKTVLPEYDYWGQGTQVTVSS | low polyreactivity
27 | QVQLVESGGGLVQAGGSLRLSCAASGSIFLHNAMGWYRQAPGKERELVAAISGTGGRTYYADSVKGRFTISRDNAKNTVYLQMNSLKPEDTAVYYCAKTLRDPYRYDYWGQGTQVTVSS | high polyreactivity
28 | QVQLVESVGGLVQAGGSLRLSCAASGITFGYNAMGWYRQAPGKERELVASISYSGDSTYYADSVKGRFTISRDNAKNSVYLQMNSLKPEDTGVYYCAAGRQVLKRRYDYWGQGTQVTVSS | low polyreactivity
29 | QVQLVESGGGLVQAGGSLRLSCAASGRIFSYYAMGWYRQAPGKERELVAAISRTGGTTYYADSVKGRFTISRDNAKNTVYLQMNSLNPEDTAVYYCYAVKAPYMRYDYWGQGTQVTVSS | high polyreactivity
30 | QVQLVESGGGLVQAGGSLRLSCAASVSIFYRNARGWYRQEPGKEREMVAAISSSVSSTYYADSVKGRFTISRDNAKNTVYLQMNSLKPEDTAVYYCAARRFQRGGDYFYRYLYDYWGQGTQVTVSS | low polyreactivity
31 | QVQLVESGGGLVQAGGSLRLSCAASGRIFYLNVMGWYRQAPGKERELVAAITRRDVTTYADSVKGRFTISRDNAKNTVYLQMNSLKPEDTAVYYCNAVYYNWIGFDYWGQGTQVSVSS | low polyreactivity
32 | QVQLVESGGGLFQAGGSLRLSCAASGSIINIYAMGWYRQAPGKERELVATITGIADSTYYADSVKGRFTISRDNAKNTVYLQMNSLKPEDTAVYYCAADKYVADYDYWGQGSQVTVSS | low polyreactivity
33 | QVQLGESGGGLVQAVGSLRLSCAASGSTFRGNAMGWYRQAPAKARELVAANTSDGSTSYADSVKGRFTISRDNAKNTVYLQMNSLKPEDTAVYYSNADYHQSIWEAVDFEYDYWGQGTQVTVSS | low polyreactivity
34 | QVQLVESGGGIVQAGGSLRLSCAASGSIFQGNAMGWYRQAAGKERELVAAITYSGGSTYYADSVKGRFTISRDNAKNTVYLQMNSLKPEDTAVSYCNTTLRDSRQYVDRAPYTRYDYWGQGTQVTVSS | low polyreactivity
35 | QVQLQESGGGLVQACGSLRLSCAASGTITVLYKMGWFRQAPGKEREFVASINYGTSTYYADSVKGRFTVSRDSAKNTVYLQMNSLKPEDTAVYYCAAAYRWQDVYRYWGQGTQVTVSS | low polyreactivity
36 | QVQLVESGVGLGQAGGSLRLSCAASGRTYWRYAMGWYRQAPGKETELVASINWNGGSTYYADSVKGRFTNSRDNAKNTVYLQMNSLKPEDTAVYYCAALRWPVYLFDYWGQGTQVTVSS | high polyreactivity
37 | QVQLVESGGGLVQAGGSLRLSCAASGSIFGYNAMGWYRQAPGKERELVAAIRRSGSSTYYADSVKGRFTISRDNAKNTVYLQMNSLKPEDTAVYYCNRVPRPVADQEYDYWGQGTQVTVSS | low polyreactivity
38 | QVQLVESGGGLVQAGGSLRLSCAASGSIFPRNAMGWYRQAPGKERELVARINSGGTTKYADSVKGRFTISRDNAKNTVYLQMNSLKPEDTAVYYCNADTYILDPLRKSYGYDYWGQGTQVTVSS | low polyreactivity
39 | QVQLVESGGGLVQAGGSLRLSCAASGRSFSLYAMGWYRQAPGKERELVASITGSSTYYADSVKGRFTISRDNAKNTVYLQMNSLKPEDTAVYYCNARTSAGAGVDYWGQGTQVTVSS | low polyreactivity
40 | QVHLVESGGGLVQAGGRLRLSCAASGNTFYQYAMGWYRQAPGKERELVAAISSSGGSTYYADTVKGRFTISRDNAKNTVYLQMNSLKPEDTGVYYCATDKWYGYYYWGQGTQVTVSS | low polyreactivity
41 | QVQLVESGGGLVQAGGSLRLSCAASGRTSGFNTMGWYRQAPGKERELVAAISFSGGSTYYADSVKGRFTISRDNAKNTVYLQMNSLKPEDTAVYYCNALFRYLYRSGDYWGQGTQVTVSS | low polyreactivity
42 | QVQLVESGGGLVQAGGSLRLSCAASGSTFVPYAMGWYRQAPGKERELVASITYSGGSTSYADSVKGRVTISRDTAKNTVYLQMNSLKPEDTAVNYCAAVPWVVYSGYDYWGQGTQVTVSS | low polyreactivity
43 | QVQLVESGGGLVQAGGRLSLSCAASGRTFYRYAMGWYRQAPGKDRELVAAISTRGGTTYYADSVKGRFTFSRDNAKNSVYLQMNSLKPEDTAVYYCAADSVYAEYDSWGQGTQVTVSS | low polyreactivity
